Reference: PMC7909569, “Unique Cellular and Biochemical Features of Human Mitochondrial Peroxiredoxin 3 Establish the Molecular Basis for Its Specific Reaction with Thiostrepton” (Antioxidants, 2021)
Numbering of substitutions follows the chain as printed. Names and notes keep the numbering of the source.

What was measured:
[1] = molecular target: the molecule itself; experiment: SEC-MALS; oxidized samples (1.2 equivalents of H2O2), 2 mg/mL PRX, 50 mM HEPES, 100 mM NaCl, pH 7.5; (do)decamer against dimers
[2] = molecular target: the molecule itself; experiment: SEC-MALS; peroxide titration: pre-reduced PRX3 (93 µM), DTT removed, pH 8.0, 0 H2O2 (fully reduced)
[3] = molecular target: the molecule itself; experiment: SEC-MALS; engineered dimers, reduced (10 mM DTT) or oxidized (1.2 equivalents H2O2), 2 mg/mL, all pH values tested (7.0, 7.5, 8.0)
[4] = molecular target: the molecule itself; experiment: SEC-MALS; reduced samples (10 mM DTT), 2 mg/mL (90–93 µM) PRX, 50 mM HEPES, 100 mM NaCl, pH 7.0, 7.5 or 8.0 (PRX3 only pH 7.5 and 8.0); TSK Gel 4000 SW column run without reducing agents; (do)decamer against dimers
[5] = molecular target: the molecule itself; experiment: SEC-MALS; peroxide titration: pre-reduced PRX2 (100 µM), pH 7.4, 100 µM H2O2 (1 equivalence, fully oxidized)
[6] = molecular target: the molecule itself; experiment: SEC-MALS; oxidized samples (1.2 equivalents of H2O2), 2 mg/mL PRX, 50 mM HEPES, 100 mM NaCl, pH 8.0; (do)decamer against dimers

B1: Untagged wild-type PRX3 (residues 62–256) (enzyme, human, UniProt P30048 62-256, looked up)
chain: APAVTQHAPYFKGTAVVNGEFKDLSLDDFKGKYLVLFFYPLDFTFVCPTEIVAFSDKANEFHDVNCEVVAVSVDSHFSHLAWINTPRKNGGLGHMNIALLSDLTKQISRDYGVLLEGSGLALRGLFIIDPNGVIKHLSVNDLPVGRSVEETLRLVKAFQYVETHGEVCPANWTPDSPTIKPSPAASKEYFQKVNQ
notes: peroxiredoxin 3 (PRX3), human, mitochondrial, residues 62–256, wild type, untagged; Stored oxidised to the disulfide (1.5 equivalents H2O2); tested reduced, partially oxidised and oxidised; also called peroxiredoxin 3; mitochondrial peroxiredoxin 3; not shown: Intein, N-terminal, cleaved
[1]
  stoichiometry N: 2
[2]
  stoichiometry N: 12

B2: PRX3-S139E/A142E (enzyme, human, UniProt P30048 62-256, looked up)
chain: B1 chain with S78E, A81E
notes: peroxiredoxin 3 (PRX3), human, with S139E and A142E in the dimer-dimer interface; The wild-type construct is residues 62–256; The methods call the N-terminal His-tag non-cleavable; also called engineered dimer of PRX3; PRX3 EE
[3]
  stoichiometry N: 2

B3: Wild-type human PRX1 (enzyme, UniProt Q06830 1-199, looked up)
chain: MSSGNAKIGHPAPNFKATAVMPDGQFKDISLSDYKGKYVVFFFYPLDFTFVCPTEIIAFSDRAEEFKKLNCQVIGASVDSHFCHLAWVNTPKKQGGLGPMNIPLVSDPKRTIAQDYGVLKADEGISFRGLFIIDDKGILRQITVNDLPVGRSVDETLRLVQAFQFTDKHGEVCPAGWKPGSDTIKPDVQKSKEYFSKQK
notes: peroxiredoxin 1 (PRX1), human, wild type, untagged, no extra residues; Tested reduced (DTT) and oxidised to the disulfide (H2O2); also called peroxiredoxin 1; WT PRX1
[4]
  stoichiometry N: 10

B4: PRX1 C83E (enzyme, human, UniProt Q06830 1-199, looked up)
chain: B3 chain with C83E
notes: peroxiredoxin 1 (PRX1), human, with C83E in the dimer-dimer interface, untagged; also called engineered dimer of PRX1; dimeric version of PRX1
[3]
  stoichiometry N: 2

B5: PRX2-T82E (enzyme, human, UniProt P32119 1-198, looked up)
chain: MASGNARIGKPAPDFKATAVVDGAFKEVKLSDYKGKYVVLFFYPLDFTFVCPTEIIAFSNRAEDFRKLGCEVLGVSVDSQFEHLAWINTPRKEGGLGPLNIPLLADVTRRLSEDYGVLKTDEGIAYRGLFIIDGKGVLRQITVNDLPVGRSVDEALRLVQAFQYTDEHGEVCPAGWKPGSDTIKPNVDDSKEYFSKHN
notes: peroxiredoxin 2 (PRX2), human, with T82E in the dimer-dimer interface; The methods call the N-terminal His-tag non-cleavable; also called engineered dimer of PRX2; dimeric version of PRX2
[3]
  stoichiometry N: 2

B6: Wild-type human PRX2 (enzyme, UniProt P32119 1-198, looked up)
chain: B5 chain with E82T
notes: peroxiredoxin 2 (PRX2), human, wild type, untagged, no extra residues; Tested reduced (DTT) and oxidised to the disulfide (H2O2); also called peroxiredoxin 2; WT PRX2
[5]
  stoichiometry N: 10
[6]
  stoichiometry N: 2
